# T1: cleaved high molecular weight kininogen (HMWK) (human, UniProt P01042 19-380; P01042 390-644)
# T1 construct: also called cleaved HMWK; 2-chain HMWK
# T1 sequence 1: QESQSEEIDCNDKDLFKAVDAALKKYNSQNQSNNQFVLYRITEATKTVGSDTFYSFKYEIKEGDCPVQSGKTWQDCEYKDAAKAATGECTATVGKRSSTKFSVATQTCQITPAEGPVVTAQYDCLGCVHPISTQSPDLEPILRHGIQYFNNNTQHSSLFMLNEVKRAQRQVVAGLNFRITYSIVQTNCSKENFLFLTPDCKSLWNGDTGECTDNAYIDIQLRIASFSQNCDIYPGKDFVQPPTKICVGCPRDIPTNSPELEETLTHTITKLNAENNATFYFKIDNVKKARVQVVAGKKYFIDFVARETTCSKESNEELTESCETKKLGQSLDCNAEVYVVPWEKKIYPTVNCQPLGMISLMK
# T1 sequence 2: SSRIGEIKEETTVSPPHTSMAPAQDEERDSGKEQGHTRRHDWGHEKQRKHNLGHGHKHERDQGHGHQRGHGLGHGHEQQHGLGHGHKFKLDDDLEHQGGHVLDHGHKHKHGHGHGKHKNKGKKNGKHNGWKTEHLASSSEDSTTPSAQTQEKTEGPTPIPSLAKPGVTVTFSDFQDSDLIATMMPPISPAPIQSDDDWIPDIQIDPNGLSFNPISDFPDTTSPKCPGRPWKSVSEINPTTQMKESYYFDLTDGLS
# Legend:
# [1] = biological target: T1, cleaved high molecular weight kininogen …; test: sandwich ELISA with coated Fab; value = C, midpoint of the printed 4-P fit; 2-chain HMWK spiked into assay buffer, analysed in 2.5% plasma
# Excerpt: (§1) Purified cleaved HMWK was spiked into SBT assay buffer (open circles), SBT assay buffer and analyzed in the presence of 10% plasma (squares), or HMWK-deficient plasma and analyzed in the presence of 10% plasma (triangles). Purified cleaved HMWK was also spiked into assay buffer and analyzed in the presence of 2.5% plasma (diamonds) or HMWK deficient plasma and analyzed in the presence of 2.5% plasma (closed circles). The y-axis presents the ELISA signal in absorbance units, and the x-axis presents the concentration of kininogen in μg/mL.
# (§2) The following day, the plate was washed and then blocked with 2% BSA (Protease/IgG free) in PBS buffer. Following a wash, samples containing cleaved HMWK in 0.1% BSA buffer in PBS with 0.05% Tween-20 (2-Chain HMWK assay buffer). Purified protein standards (e.g., 2-chain HMWK, intact HMWK or LMWK) were spiked into HMWK-deficient plasma and diluted 1:320 in 2-chain HMWK assay buffer. Following plate washing with PBST, a mixture of 2 mouse monoclonal antibodies (11H05 and 13B12) at 1 μg/mL in 2-chain HMWK assay buffer were added for 1 hour at room temperature. […] Signal was detected by the addition of 3,3′,5,5′-tetramethylbenzidine (TMB), an HRP substrate. […] Hydrolysis of a TMB substrate was detected using a microplate reader at 450 nm-630 nm (FIG. 3). […] Using these immunoassay conditions, specifically binding to cleaved HMWK was detected.
# [2] = biological target: T1, cleaved high molecular weight kininogen …; test: sandwich ELISA with coated Fab; value = C, midpoint of the printed 4-P fit; 2-chain HMWK spiked into SBT buffer, analysed in 10% plasma
# Excerpt: as §1, §2
# [3] = biological target: T1, cleaved high molecular weight kininogen …; test: ELISA on coated M004-B04, 2-chain HMWK (in deficient plasma, diluted) titrated, no peptide (control); value = C, midpoint of the printed 4-P fit
# Method: Following plate washing with PBST, a mixture of 2 mouse monoclonal antibodies (11H05 and 13B12) at 1 μg/mL in 2-chain HMWK assay buffer were added for 1 hour at room temperature. Unbound detection antibodies were washed and a 1:2000 dilution of goat anti-mouse secondary antibody conjugated to horseradish peroxidase (HRP) was added. The assay containing the secondary antibody was incubated for 1 hour at room temperature, and unbound secondary antibody was removed by washing with 2-chain HMWK assay buffer. Signal was detected by the addition of 3,3′,5,5′-tetramethylbenzidine (TMB), an HRP substrate. The reaction was stopped with phosphoric acid. Hydrolysis of a TMB substrate was detected using a microplate reader at 450 nm-630 nm (FIG. 3). […] Using these immunoassay conditions, specifically binding to cleaved HMWK was detected.
# To perform the assay, the kininogen peptides were diluted to 250 μg/mL and allowed to preincubate on assay plate. Then, purified 2-chain HMWK in deficient human plasma was diluted 160 and then added to plate.
# [4] = biological target: T1, cleaved high molecular weight kininogen …; test: sandwich ELISA: Fab coated on 96-well plate, kininogen titrated, detection 11H05 + 13B12 and goat anti-mouse-HRP; value = C, midpoint of the printed 4-P fit; 2-chain HMWK spiked into HMWK-deficient plasma
# Excerpt: Purified cleaved HMWK was spiked into SBT assay buffer (circles) or HMWK-deficient plasma (squares). Purified intact HMWK was spiked into SBT assay buffer (triangles). Purified LMWK was spiked into SBT assay buffer (diamonds). The y-axis presents the ELISA signal in absorbance units, and the x-axis presents the concentration of kininogen in μg/mL.
# as §2, with “temperature. Unbound detection antibodies were washed and a 1:2000 dilution of goat anti-mouse secondary antibody conjugated to horseradish peroxidase (HRP) was added.” for “temperature.”
binder,measurement,setting,value
"559B-M0004-B04 (Fab, V domains shown, also called M004-B04) VH: EVQLLESGGGLVQPGGSLRLSCAASGFTFSFYVMVWVRQAPGKGLEWVSGISPSGGNTAYADSVKGRFTISRDNSKNTLYLQMNSLRAEDTAVYYCARKLFYYDDTKGYFDFWGQGTLVTVSS VL: not shown",EC50,[1],204 µg/mL
same,EC50,[2],184 µg/mL
same,EC50,[3],0.0123 µg/mL
same,EC50,[4],247 µg/mL

# From US20210270842A1 (DYAX, published 2021)
